The substances below were run against Kv1.3 voltage-gated potassium channel on T cells in human whole blood (human) (UniProt P22001) (assay: cell-based or functional assay).
Kv1.3 voltage-gated potassium channel on T cells in human whole blood (human), sequence (P22001 whole entry): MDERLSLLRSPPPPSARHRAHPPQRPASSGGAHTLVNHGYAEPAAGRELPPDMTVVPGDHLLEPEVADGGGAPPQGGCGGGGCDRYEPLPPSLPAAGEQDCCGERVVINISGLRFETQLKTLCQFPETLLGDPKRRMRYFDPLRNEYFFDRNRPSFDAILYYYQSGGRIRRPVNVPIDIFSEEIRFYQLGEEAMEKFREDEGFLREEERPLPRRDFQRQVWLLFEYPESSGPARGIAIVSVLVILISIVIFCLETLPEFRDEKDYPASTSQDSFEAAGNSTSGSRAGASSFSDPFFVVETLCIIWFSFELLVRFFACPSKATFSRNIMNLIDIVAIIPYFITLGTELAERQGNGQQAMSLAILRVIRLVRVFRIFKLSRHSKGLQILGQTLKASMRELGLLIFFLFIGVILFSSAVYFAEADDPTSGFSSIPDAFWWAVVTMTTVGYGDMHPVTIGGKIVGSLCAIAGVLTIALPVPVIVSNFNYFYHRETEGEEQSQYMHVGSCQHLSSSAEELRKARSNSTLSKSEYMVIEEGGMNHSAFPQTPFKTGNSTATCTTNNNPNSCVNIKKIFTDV
With 20 kDa-PEG-ShK (peptide) the Potency Relative to ShK (WB, IL2) was 5.67 fold, the WB (IFNg) IC50 was 0.84 nM and the WB (IL-2) IC50 was 0.38 nM.
Substance “Monovalent Fc/Fc-L10-ShK[2-35] heterodimer (Fc fusion)” has a Potency Relative to ShK (WB, IL2) of 32.1 fold, a WB (IFNg) IC50 of 5.2 nM and a WB (IL-2) IC50 of 2.15 nM.
ShK(1-35) (peptide) gave a Potency Relative to ShK (WB, IL2) of 1 fold, a WB (IFNg) IC50 of 0.078 nM and a WB (IL-2) IC50 of 0.067 nM.

Source: patent US20130189283A1
